The record followed here is US20190309069A1 (SHANGHAI HENGRUI PHARMACEUTICAL, published 2019).

For orientation: EC50 means the concentration needed to bring the measured effect to its halfway point.

Assay [1] has as its target T1, human CD28 (Beijing Sino Biological Inc.) (human, UniProt P10747 19-152).
T1 construct: Bought reagent
The experiment in a line: ELISA, protein coated at 1 µg/ml. The protocol:
(§1) To detect the specific binding activity of PD-1 antibody to other proteins of the PD-1 family, human CTLA4 and human CD28 were used for binding assays. Meanwhile, the PD-1 of mice was also used for binding assays so as to determine the diversity of PD-1 antibody for different species other than human/monkey.
(§2) Selectively binding proteins: human PD-1, human ICOS, human CTLA4, human CD28 and mouse PD-1, (Beijing Sino Biological Inc.), were respectively diluted to 1 μg/ml with PBS buffer, pipetted into a 96-well plate at 100 μl/well and standed for 16 h-20 h at 4° C. The 96-well plate was washed once with PBST (PH7.4 PBS, containing 0.05% tweeen20) after PBS buffer was removed, then the plate was incubated and blocked for 1 h at room temperature with 120 μl/well PBST/1% milk. After removal of the blocking solution, the plate was washed with PBST buffer for 3 times, followed by addition of the test PD-1 antibody, and incubated for 1.5 h at room temperature. After removal of the reaction system, the plate was washed for 3 times with PBST, followed by addition of 100 μl/well HRP-labeled anti-murine secondary antibody (The Jackson Laboratory) which was diluted by PBST/1% milk, and incubated for 1 h at room temperature. The plate was washed for 3 times with PBST, followed by addition of 100 μl/well TMB, and incubated for 5-10 min at room temperature. Then the reaction was terminated with addition of 100 μl/well 1M H₂SO₄. The absorbance value at 450 nm was read on the NOVOStar microplate reader.
Background: In an ELISA, binding on a coated surface is turned into a signal by an enzyme label.

The target in assay [2] is T2, mouse PD1-Fc (Beijing Sino Biological Inc.) (mouse, UniProt Q02242 25-167, limits assumed).
T2 construct: Bought reagent; also called murine PD-1; not shown: Fc part
T2 sequence (looked up): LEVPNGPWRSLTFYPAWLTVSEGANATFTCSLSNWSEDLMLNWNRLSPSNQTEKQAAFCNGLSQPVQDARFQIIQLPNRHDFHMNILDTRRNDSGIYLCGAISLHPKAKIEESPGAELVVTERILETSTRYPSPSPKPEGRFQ
In words: ELISA, protein coated at 1 µg/ml. As for the experimental part:
as §1, §2

Assay [3] addresses T3, human ICOS/Fc (Beijing Sino Biological Inc.) (human, UniProt Q9Y6W8 21-141, limits assumed).
T3 construct: Bought reagent; not shown: Fc part
T3 sequence (looked up): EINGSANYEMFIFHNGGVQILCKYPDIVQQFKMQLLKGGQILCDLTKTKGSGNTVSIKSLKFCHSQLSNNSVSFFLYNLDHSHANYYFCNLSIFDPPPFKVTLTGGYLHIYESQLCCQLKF
The experiment in a line: ELISA, protein coated at 1 µg/ml. The protocol: as §1, §2

In assay [4] the target is T4, human CTLA4 (Beijing Sino Biological Inc.) (human, UniProt P16410 36-162, limits assumed).
T4 construct: Bought reagent
T4 sequence (looked up): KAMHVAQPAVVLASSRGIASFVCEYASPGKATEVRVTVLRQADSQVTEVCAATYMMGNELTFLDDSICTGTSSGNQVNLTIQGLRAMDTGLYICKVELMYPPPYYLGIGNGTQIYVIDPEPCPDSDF
The experiment in a line: ELISA, protein coated at 1 µg/ml. As for the experimental part: as §1, §2

In a further assay the target is T5, cynomolgus PD-1Fc (cynomolgus, UniProt B0LAJ3 25-170, Probably biotinylated for capture on avidin, as the human PD-1 FC was in this ELISA. Fused to an Fc that is not given.).
T5 construct: Source and construct of the cynomolgus PD-1 Fc fusion are not described; also called cyno PD-1; not shown: Fc part of the cynomolgus PD-1Fc fusion, and any linker
The experiment in a line: ELISA, cyno PD-1Fc.

In assay [5] the target is T1, human CD28 (Beijing Sino Biological …). The experiment in a line: selectivity ELISA, protein coated at 1 µg/ml. As for the experimental part:
as §1, §2

Assay [6] has as its target T2, mouse PD1-Fc (Beijing Sino Biological …). In words: selectivity ELISA, protein coated at 1 µg/ml. As for the experimental part: as §1, §2
The target of assay [7] is T3, human ICOS/Fc (Beijing Sino Biological …). The experiment in a line: selectivity ELISA, protein coated at 1 µg/ml. The protocol:
as §1, §2

Assay [8] concerns the target T6, human PD1-FC (Beijing Sino Biological Inc.) (human, UniProt Q15116 25-167, limits assumed).
T6 construct: not shown: Fc part
The experiment in a line: selectivity ELISA, protein coated at 1 µg/ml. As for the experimental part: as §1, §2

Assay [9] deals with T4, human CTLA4 (Beijing Sino Biological …). In words: selectivity ELISA, protein coated at 1 µg/ml. As for the experimental part:
as §1, §2

In assay [10] the target is T7, recombinant PD-1 extracellular domain Fc fusion protein (PD-1 Fc) (human, biotin label (sites not given) in the ELISA binding assay; unlabelled when coated in the ligand blocking assay).
T7 construct: also called human PD-1Fc; human PD-1
The experiment in a line: ELISA, biotinylated PD-1 Fc captured on avidin. The protocol: The PD-1 antibody blocks signaling pathway of PD-1 and its ligand by binding to PD-1 extracellular domain. In vitro ELISA assay is used to detect the binding property of the PD-1 antibody. Biotinylated PD-1 extracellular domain FC fusion protein (PD-1 FC) is coated onto 96-well plates by binding to neutralization avidin. Signal intensity after the addition of the antibody is used to determine the binding property of the antibody and PD-1.
Neutralization avidin (binding to biotin) was diluted to 1 μl/ml with PBS buffer, pipetted into a 96-well plate with at 100 μl/well and standed for 16 h-20 h at 4° C. The 96-well plate was washed once with PBST (PH7.4 PBS, containing 0.05% tweeen20) after PBS buffer was removed, then the plate was incubated and blocked for 1 h at room temperature with addition of 120 μl/well PBST/1% milk. After removal of the blocking solution, the plate was washed with PBST buffer, followed by addition of 1 μg/ml biotin-labeled PD1-FC which was diluted by PBST/1% milk, and incubated for 1 h at room temperature. After removal of the blocking solution, the plate was washed with PBST buffer for 3 times, followed by addition of the test PD-1 antibody which was diluted to a suitable concentration by PBST/1% milk, and incubated for 1.5 h at room temperature. […] The absorbance value at 450 nm was read on NOVOStar microplate reader; the ELISA binding EC₅₀ value was calculated.

T1 sequence (P10747 19-152 limits assumed): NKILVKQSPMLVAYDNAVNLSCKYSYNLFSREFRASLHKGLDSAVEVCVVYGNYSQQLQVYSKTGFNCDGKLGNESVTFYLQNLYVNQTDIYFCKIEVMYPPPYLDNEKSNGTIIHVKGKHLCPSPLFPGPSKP
T5 sequence (B0LAJ3 entry or part of it limits assumed): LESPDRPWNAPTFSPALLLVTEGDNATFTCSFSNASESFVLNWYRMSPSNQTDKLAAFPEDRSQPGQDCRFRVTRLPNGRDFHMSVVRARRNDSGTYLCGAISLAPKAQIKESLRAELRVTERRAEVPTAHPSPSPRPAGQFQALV
T7 sequence (chain, as listed by the source limits assumed): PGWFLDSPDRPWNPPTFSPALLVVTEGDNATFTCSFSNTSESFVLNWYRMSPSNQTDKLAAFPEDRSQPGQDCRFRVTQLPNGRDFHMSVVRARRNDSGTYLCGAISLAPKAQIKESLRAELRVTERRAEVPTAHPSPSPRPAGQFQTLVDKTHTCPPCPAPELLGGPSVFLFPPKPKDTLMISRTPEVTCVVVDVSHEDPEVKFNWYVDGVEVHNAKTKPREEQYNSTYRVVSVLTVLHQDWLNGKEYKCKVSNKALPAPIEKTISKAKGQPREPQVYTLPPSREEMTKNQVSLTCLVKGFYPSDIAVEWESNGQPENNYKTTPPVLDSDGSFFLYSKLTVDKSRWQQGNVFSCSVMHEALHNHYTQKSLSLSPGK
T6 sequence (Q15116 25-167 limits assumed): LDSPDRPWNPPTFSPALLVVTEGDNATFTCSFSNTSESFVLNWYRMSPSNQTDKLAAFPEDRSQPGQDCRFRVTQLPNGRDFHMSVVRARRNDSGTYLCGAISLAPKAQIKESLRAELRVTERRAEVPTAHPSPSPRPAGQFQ

B1: murine monoclonal antibody mAb005 (antibody, V domains shown)
VH: EVMLVESGGGLVKPGGSLKLSCAASGFTFSSYMMSWVRQTPEKRLEWVATISGGGANTYYPDSVKGRFTISRDNAKNTLYLQMSSLRSEDTALYYCARQLYYFDYWGQGTTLTVSS
VL: DIQMTQSPASQSASLGEGVTITCLASQTIGTWLTWYQQKPGKSPQLLIYTATSLADGVPSRFSGSGSGTKFSFKISSLQAEDFVTYYCQQVYSIPWTFGGGTKLEIK
notes: Murine monoclonal antibody from a hybridoma; also called PD-1 antibody mAb005
On to B1, for which the binding result in assay [1], in [2], in assay [3] and in assay [4] was “no binding” in each case. Besides, the half-maximal effective concentration (EC50) came to 0.27 nM with cynomolgus PD-1Fc and 0.25 nM in [10]. Further, the “absorbance at 450 nm” value in [5] turned out to be 0.12; in [6] it was 0.07; in assay [7] it was 0.15; in assay [8] it was 2.64; in [9], 0.17.
